Reference: patent US20140249076A1, “AMYLIN-CALCITONIN CHIMERIC PEPTIDES CONJUGATED TO DURATION ENHANCING MOIETIES” (AMYLIN PHARMACEUTICALS, LLC, priority 2011, published 2014)
Numbered stars: 1 amine (or outer) side, 2 acyl side, 3 side chain; on linkers, the order of the positions; unused ones are H or OH. Side chains are listed from the residue outwards. Ends that are not written are not given here. γGlu = O=C(O)[C@H](CCC(=O)[*:2])N[*:1]

target: amylin receptor (RNA membranes); test: displacement of 125I-rat amylin from RNA membranes

Row | Binder | IC50 [nM]
1 | KCNTATCALQK([γGlu-C16‑Chain])LAQELHRLQTYPRTNVGSNTY-NH2 (ends and bridges not checked) [Cmpd 193 ([K^11ε(γ-Glu(Nα-C16-Chain))]-Cmpd 17)] | 0.73
2 | KCNTATCALQRLAQELHRLQK([γGlu-C16‑Chain])YPRTNVGSNTY-NH2 (ends and bridges not checked) [Cmpd 187 ([K^21ε-(γ-Glu(Nα-C16-Chain))]-Cmpd 17)] | 0.446
3 | KCNTATCALQRLAQELHK([γGlu-C16‑Chain])LQTYPRTNVGSNTY-NH2 (ends and bridges not checked) [Cmpd 186 ([K^18ε-(γ-Glu(Nα-C16-Chain))]-Cmpd 17)] | 0.806
4 | KCNTATCALQRLAQELHRLQTYPK([γGlu-C16‑Chain])TNVGSNTY-NH2 (ends and bridges not checked) [Cmpd 188 ([K^24ε-(γ-Glu(Nα-C16-Chain))]-Cmpd 17)] | 1.61
5 | KCNTATCALQRLAQELHRLQTYPRTK([γGlu-C16‑Chain])VGSNTY-NH2 (ends and bridges not checked) [Cmpd 189 ([K^26ε-(γ-Glu(Nα-C16-Chain))]-Cmpd 17)] | 4.01

target: CGRP receptor (SK-N-MC cell membranes) (UniProt Q16602); test: displacement of 125I-human CGRP from SK-N-MC cell membranes
Sequence (Q16602 23-461, chain 1 of 2): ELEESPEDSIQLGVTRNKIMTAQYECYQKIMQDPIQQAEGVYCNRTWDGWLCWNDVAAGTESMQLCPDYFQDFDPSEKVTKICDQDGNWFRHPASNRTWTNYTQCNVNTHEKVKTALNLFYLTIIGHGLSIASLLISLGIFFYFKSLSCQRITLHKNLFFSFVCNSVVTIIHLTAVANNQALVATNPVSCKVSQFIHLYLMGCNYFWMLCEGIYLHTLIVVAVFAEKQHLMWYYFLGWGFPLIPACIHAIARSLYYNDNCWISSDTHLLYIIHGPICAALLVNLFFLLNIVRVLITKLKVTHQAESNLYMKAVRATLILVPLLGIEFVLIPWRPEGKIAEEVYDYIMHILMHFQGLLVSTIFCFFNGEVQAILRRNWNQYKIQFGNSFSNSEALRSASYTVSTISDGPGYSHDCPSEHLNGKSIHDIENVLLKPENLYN
Sequence (O60894 27-148, chain 2 of 2, further chain): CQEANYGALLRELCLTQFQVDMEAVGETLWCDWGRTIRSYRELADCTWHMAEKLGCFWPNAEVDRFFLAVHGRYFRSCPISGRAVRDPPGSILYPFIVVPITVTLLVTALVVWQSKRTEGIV

Row | Binder | IC50 [nM]
6 | KCNTATCALQK([γGlu-C16‑Chain])LAQELHRLQTYPRTNVGSNTY-NH2 (ends and bridges not checked) [Cmpd 193 ([K^11ε(γ-Glu(Nα-C16-Chain))]-Cmpd 17)] | 46.5
7 | KCNTATCALQRLAQELHRLQK([γGlu-C16‑Chain])YPRTNVGSNTY-NH2 (ends and bridges not checked) [Cmpd 187 ([K^21ε-(γ-Glu(Nα-C16-Chain))]-Cmpd 17)] | 0.77
8 | KCNTATCALQRLAQELHK([γGlu-C16‑Chain])LQTYPRTNVGSNTY-NH2 (ends and bridges not checked) [Cmpd 186 ([K^18ε-(γ-Glu(Nα-C16-Chain))]-Cmpd 17)] | 26.3
9 | KCNTATCALQRLAQELHRLQTYPK([γGlu-C16‑Chain])TNVGSNTY-NH2 (ends and bridges not checked) [Cmpd 188 ([K^24ε-(γ-Glu(Nα-C16-Chain))]-Cmpd 17)] | 100
10 | KCNTATCALQRLAQELHRLQTYPRTK([γGlu-C16‑Chain])VGSNTY-NH2 (ends and bridges not checked) [Cmpd 189 ([K^26ε-(γ-Glu(Nα-C16-Chain))]-Cmpd 17)] | 75

target: rat C1a calcitonin receptor (rat) (UniProt P32214); test: displacement of 125I-human calcitonin from C1a-HEK cell membranes

Row | Binder | IC50 [nM]
11 | KCNTATCALQRLAQELHRLQTYPRTNVGSNTY-NH2 (ends and bridges not checked) [Cmpd 17] | 0.095
12 | KCNTATCALQK([γGlu-C16‑Chain])LAQELHRLQTYPRTNVGSNTY-NH2 (ends and bridges not checked) [Cmpd 193 ([K^11ε(γ-Glu(Nα-C16-Chain))]-Cmpd 17)] | 0.168
13 | K([γGlu-C16‑Chain])CNTATCALQRLAQELHRLQTYPRTNVGSNTY-NH2 (ends and bridges not checked) [Cmpd 192 ([K^1ε-(γ-Glu(Nα-C16-Chain))]-Cmpd 17)] | 0.07
14 | KCNTATCALQRLAQELHRLQK([γGlu-C16‑Chain])YPRTNVGSNTY-NH2 (ends and bridges not checked) [Cmpd 187 ([K^21ε-(γ-Glu(Nα-C16-Chain))]-Cmpd 17)] | 0.151
15 | K([γGlu-C16‑Chain])KCNTATCALQRLAQELHRLQTYPRTNVGSNTY-NH2 (ends and bridges not checked) [Cmpd 195 (Kε-(γ-Glu(Nα-C16-Chain))-Cmpd 17)] | 0.046
16 | KCNTATCALQRLAQELHK([γGlu-C16‑Chain])LQTYPRTNVGSNTY-NH2 (ends and bridges not checked) [Cmpd 186 ([K^18ε-(γ-Glu(Nα-C16-Chain))]-Cmpd 17)] | 1.07
17 | KCNTATCALQRLAQELHRLQTYPK([γGlu-C16‑Chain])TNVGSNTY-NH2 (ends and bridges not checked) [Cmpd 188 ([K^24ε-(γ-Glu(Nα-C16-Chain))]-Cmpd 17)] | 0.898
18 | KCNTATCALQRLAQELHRLQTYPRTK([γGlu-C16‑Chain])VGSNTY-NH2 (ends and bridges not checked) [Cmpd 189 ([K^26ε-(γ-Glu(Nα-C16-Chain))]-Cmpd 17)] | 1.49
